According to article PMC4072508, “Genome-Wide Prediction and Validation of Peptides That Bind Human Prosurvival Bcl-2 Proteins” (PLoS Computational Biology, 2014):

Biological target: Bcl-xL, Q07817
Assay: peptide SPOT array, c-Myc-tagged receptor at 1 uM or 100 nM, anti-c-Myc-Cy3

Chain of Bcl-xL, Q07817 (Q07817 1-209): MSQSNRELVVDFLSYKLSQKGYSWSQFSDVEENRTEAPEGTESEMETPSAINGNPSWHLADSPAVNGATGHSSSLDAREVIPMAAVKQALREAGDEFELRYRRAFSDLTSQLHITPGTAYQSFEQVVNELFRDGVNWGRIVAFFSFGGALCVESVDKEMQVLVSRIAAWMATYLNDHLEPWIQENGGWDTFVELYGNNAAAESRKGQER

Q: With PEDLQDVGWFDHKLSQQILKKEKEKK [TLR5] as the binder, how does the SPOT signal as a fraction of Bim BH3's signal on the same receptor and array read?
A: 0.05

Q: With LFRIRLVCTILDTCGQYFDRGSSKRK [UPF2] as the binder, how does the SPOT signal as a fraction of Bim BH3's signal on the same receptor and array read?
A: 0.24

Q: How did the SPOT signal as a fraction of Bim BH3's signal on the same receptor and array turn out when RAELTGLARRLADRLRKLQETNLRAV [RIMBP3] was run?
A: 0.39

Q: TDENKKVGLADKDLAKQYSDRLECCE [NUB1] was tested. Which SPOT signal as a fraction of Bim BH3's signal on the same receptor and array did it give?
A: 0.02

Q: Which SPOT signal as a fraction of Bim BH3's signal on the same receptor and array does the source give for LDDIEFFITKLQKAAEAFSELSKRKK [EPS8] here?
A: 0.13

Q: Which SPOT signal as a fraction of Bim BH3's signal on the same receptor and array does the source give for KDSVEGICSKIYHISLEYVKRIREKH [PCIF1] here?
A: 0.08

Q: With AGDVEGFCSSIHDTSVSAGFRALYEE [KLHL15] as the binder, how does the SPOT signal as a fraction of Bim BH3's signal on the same receptor and array read?
A: 0.02

Q: How did the SPOT signal as a fraction of Bim BH3's signal on the same receptor and array turn out when IQRMGKYALLLQELARACGGPTQELS [PLEKHG4] was run?
A: 0.08

Q: How did the SPOT signal as a fraction of Bim BH3's signal on the same receptor and array turn out when LKELDLSGNSLSHSLVKSLCKTLRRP [NLRP1] was run?
A: 0.28

Q: How did the SPOT signal as a fraction of Bim BH3's signal on the same receptor and array turn out when ELLRLRQHWKLRKVLDKILGDLSYRS was run?
A: 0.46

Q: Which SPOT signal as a fraction of Bim BH3's signal on the same receptor and array does the source give for FLRINMVSMKLLAYAMDFWSKGQLKA [PANK1] here?
A: 0.11

Q: For DQEEACASRQDHSLASFSTVTARRNP, which SPOT signal as a fraction of Bim BH3's signal on the same receptor and array is on record?
A: 0.04

Q: Which SPOT signal as a fraction of Bim BH3's signal on the same receptor and array does the source give for RGRTRGWVQTLARMLRRTRGPVERAA [C6orf223] here?
A: 0.66

Q: With QNSRDPFCKAIEEVAQDLDLRIKNII [C12orf48] as the binder, how does the SPOT signal as a fraction of Bim BH3's signal on the same receptor and array read?
A: 0.03

Q: For DQEEACASRQLHSLLSFSTVTARRNP, which SPOT signal as a fraction of Bim BH3's signal on the same receptor and array is on record?
A: 0.1

Q: How did the SPOT signal as a fraction of Bim BH3's signal on the same receptor and array turn out when DFMGRTFAKPDVKMADEAYCPPRFPP [OTOF] was run?
A: 0.03

Q: Which SPOT signal as a fraction of Bim BH3's signal on the same receptor and array does the source give for VDKLKTLSETLLEMSSLFQRSGSGQM [ABCA13] here?
A: 0.03

Q: For RERLRQSGERLRQSGERLRQSGERFK [MURC], which SPOT signal as a fraction of Bim BH3's signal on the same receptor and array is on record?
A: 0.55

Q: With PFNIQDYAEALKNYAASIYNLSKKHD [NAALAD2] as the binder, how does the SPOT signal as a fraction of Bim BH3's signal on the same receptor and array read?
A: 0.05

Q: HRNTRNLAAFLGKALDLLRFPVKQLY [RP1L1] was tested. Which SPOT signal as a fraction of Bim BH3's signal on the same receptor and array did it give?
A: 0.47

Q: With NNDLSHIAGKLTYASQKYKNHIGTEI [HFM1] as the binder, how does the SPOT signal as a fraction of Bim BH3's signal on the same receptor and array read?
A: 0.12

Q: How did the SPOT signal as a fraction of Bim BH3's signal on the same receptor and array turn out when KFRHDEIISLLKNVGERVVLEVEYEL [GRIP1] was run?
A: 0.03

Q: AIKPVSFIRDLKKILRHFRFGNQEDA [USP36] was tested. Which SPOT signal as a fraction of Bim BH3's signal on the same receptor and array did it give?
A: 0.42

Q: For ESEVQHLSQKLYDWSDSQNLKITGKA [ANKRD32], which SPOT signal as a fraction of Bim BH3's signal on the same receptor and array is on record?
A: 0.03

Q: With NKDGKSVSNRLRRLLDNCGGKVLSIT [KIAA0430] as the binder, how does the SPOT signal as a fraction of Bim BH3's signal on the same receptor and array read?
A: 0.33

Q: YGRLRPRARSDSKASTAINWLTKKFL [MYO15A] was tested. Which SPOT signal as a fraction of Bim BH3's signal on the same receptor and array did it give?
A: 1.49

Q: How did the SPOT signal as a fraction of Bim BH3's signal on the same receptor and array turn out when SDDVQKIVEELQSLSKMLLKDVEEEK [IL31] was run?
A: 0.03

Q: How did the SPOT signal as a fraction of Bim BH3's signal on the same receptor and array turn out when MGVLAAAARCLVRGLDRMSKWTSKRG [MRPL41] was run?
A: 0.42

Q: Which SPOT signal as a fraction of Bim BH3's signal on the same receptor and array does the source give for FTGNNTAVQELKRVLEQFTATFRRKA [TUBB4Q] here?
A: 0.7

Q: How did the SPOT signal as a fraction of Bim BH3's signal on the same receptor and array turn out when ELLRLRQHWKDRKVGDKILGDLSYRS was run?
A: 1.2

Q: How did the SPOT signal as a fraction of Bim BH3's signal on the same receptor and array turn out when RRFAKTIGKVDMQYADILSKDFPAYC [UNC13B] was run?
A: 0.45

Q: VKAVDPTSGQLYGLARELSDEIQVQV [NUP210] was tested. Which SPOT signal as a fraction of Bim BH3's signal on the same receptor and array did it give?
A: 0.02

Q: Which SPOT signal as a fraction of Bim BH3's signal on the same receptor and array does the source give for KANLEKVSRTLEDQANEYRVKLEEAQ [MYH6] here?
A: 0.02

Q: Which SPOT signal as a fraction of Bim BH3's signal on the same receptor and array does the source give for TCELREFVKNIDQVSSEVLEGWPDSY [TLR6] here?
A: 0.02

Q: With VFERCELARTDKRLGMDGYRGISLAN [LYZ] as the binder, how does the SPOT signal as a fraction of Bim BH3's signal on the same receptor and array read?
A: 0.22

Q: How did the SPOT signal as a fraction of Bim BH3's signal on the same receptor and array turn out when HCQLRSVSQEIHRLSESMAQVYRGST [TDRD6] was run?
A: 0.04

Q: With HPKRKQVTELDLRKGANVNEKNKDFM [TNKS] as the binder, how does the SPOT signal as a fraction of Bim BH3's signal on the same receptor and array read?
A: 0.38

Q: How did the SPOT signal as a fraction of Bim BH3's signal on the same receptor and array turn out when EQKVKQKAADLLEMATFLQKRVEEEE [C10orf79] was run?
A: 0.02

Q: Which SPOT signal as a fraction of Bim BH3's signal on the same receptor and array does the source give for PDGLLEFAKRLERWGRGAFGHLRLFQ [LRRC41] here?
A: 0.46

Q: How did the SPOT signal as a fraction of Bim BH3's signal on the same receptor and array turn out when LENYYRLADDLSNAARELRVLIDDSQ [MRS2] was run?
A: 0.03
